Data reported in patent US12460006B2, “Antibodies against integrin alpha 11 beta 1” (Momenta Pharmaceuticals, Inc., priority 2019, dated 2025).

T1: α11β1 I Domain (Homo sapiens, UniProt Q9UKX5)
T1 sequence (Q9UKX5 164-345 limits assumed): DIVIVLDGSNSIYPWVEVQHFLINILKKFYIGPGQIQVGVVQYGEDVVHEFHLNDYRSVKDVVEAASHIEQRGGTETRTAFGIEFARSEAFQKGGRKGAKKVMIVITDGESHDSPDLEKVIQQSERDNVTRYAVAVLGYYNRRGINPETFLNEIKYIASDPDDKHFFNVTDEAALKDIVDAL

B1: 16E10: rabbit anti-α11β1 mAb; heavy chain SEQ ID NO: 161, light chain SEQ ID NO: 162 (antibody)
heavy: METGLRWLLLVAVLKGVQCQSLEESGGDLVKPGASLTLTCRVSGFSFSSSYYMCWVRQAPGKGLEWIACIGTTRGSTYYATWAKGRFTISKISSTTVTLQMTSLTDADTATYFCARDATGYRINTIGLYFNLWGPGTLVTVSSGQPKAPSVFPLAPCCGDTPSSTVTLGCLVKGYLPEPVTVTWNSGTLTNGVRTFPSVRQSSGLYSLSSVVSVTSSSQPVTCNVAHPATNTKVDKTVAPSTCSKPMCPPPELPGGPSVFIFPPKPKDTLMISRTPEVTCVVVDVSQDDPEVQFTWYINNEQVRTARPPLREQQFNSTIRVVSTLPIAHQDWLRGKEFKCKVHNKALPAPIEKTISKARGQPLEPKVYTMGPPREELSSRSVSLTCMINGFYPSDISVEWEKNGKAEDNYKTTPTVLDSDGSYFLYSKLSVPTSEWQRGDVFTCSVMHEALHNHYTQKSISRSPGK
light: MDTRAPTQLLGLLLLWLPGARCAFELTQTPSSVEAAVGGTPTIKCQASQTIYSYLSWYQQKPGQPPKLLIYEASKLASGVPSRFSGSGSGTDYTLTISDLECADAATYYCQSYHGTASTEYNTFGGGTEVVVRGDPVAPTVLIFPPAADQVATGTVTIVCVANKYFPDVTVTWEVDGTTQTTGIENSKTPQNSADCTYNLSSTLTLTSTQYNSHKEYTCKVTQGTTSVVQSFNRGDC
B2: 9-B11: mouse anti-α11β1 mAb; VH SEQ ID NO: 115, VL SEQ ID NO: 116 (antibody, V domains shown)
VH: QVQLQQPGAELVRPGTSVKLSCKASGYTFTSYWMHWVQQRPGQGLEWIGVIDPSDSYTNYNQKFKGKATLTVDTSSSSAYMQLSSLTSEDSAVYYCARDDVAMDYWGQGTSVTVSS
VL: DIVVTQSPASLAVSLGQRATISCRASESVDSYGNSFIHWYQQKPGQPPKLLIYRASNLKSGIPARFSGSGSRTDFTLTINPVEADDVATYYCQQSNEDPYTFGGGTKLEIK
B3: 8-I14: mouse anti-α11β1 mAb; VH SEQ ID NO: 109, VL SEQ ID NO: 110 (antibody, V domains shown)
VH: EVQLQQSGPELVKPGASVKKSCKASGYTFTDYYMHWVKQKPGQGLEWIGKIYPGSGNTHYNEKFKGKATLTADKSSSTAYMQLSSLTSEDSAVYFCATNYYGYRAMNYWGQGSSVTVSS
VL: DIHLTQSPSSLSASLGERISLTCRASQDIYISLNWFQQKPDGTIKLLIYGTSSLDSGVPKRFSGSRSGSDYSLTISSLESEDFADYYCLQYASSPYTFGGGTKLEIK
B4: 9-E16: mouse anti-α11β1 mAb; VH SEQ ID NO: 111, VL SEQ ID NO: 112 (antibody, V domains shown)
VH: EVQLQQSGPELVKPGASVKISCKASGYTFTDYYMHWVKQKPGQGLEWIGEIYPGSGNPYYNEKFKGKATLTADKSSSSAYMQLSSLTSEDSAVYFCARTSYGRVGTGFAYWGQGTLVTVSA
VL: NFVMTQTPLSLPVSLGDQASISCRSSQSLLHSNGNTYLHWYLQKPGQSPKLLIYKVSNRFSGVPDRFSGSGSGTDFTLKINRVETEDLGIYFCSQSSHVPTFGAGTKLELK
B5: 24E4G6: rat anti-α11β1 mAb; VH SEQ ID NO: 147, VL SEQ ID NO: 148 (antibody, V domains shown)
VH: MELELSLIFIFSLLKDVQCEVQLVESGGSLVQPGGSLKLSCVASGYTFSNYWMDWVRQSPGKSLEWIGEINTDGRRTNYAPSIKDRFTISRDNAKSTLYLQMSNVKSDDTAIYYCTILRVYPHYFDYWGQGVMVTVSS
VL: MMSPAQFLFLLMLWIQEARGDVVMTQTPPSLSVAIGQSVSISCKSSQSLVYSDGETYLHWFLQSPGRSPKRLIYHVSNLGSGVPDRFSGTGSLTDFTLRISRVEAEDLGVYYCAQTTHFPPTFGAGTKLELK
B6: 16G7: rabbit anti-α11β1 mAb; heavy chain SEQ ID NO: 159, light chain SEQ ID NO: 160 (antibody)
heavy: METGLRWLLLVAVFKGVQCQEQLVESGGDLVKPGASLTLTCTASGFSFNKNYWMCWVRQAPGKGLEWIGCIYNGDGNTYYASWVNGRFTISKTSSTTVTLQMTSLTVADTAIYFCARLLNMWGPGTLVTVSSGQPKAPSVFPLAPCCGDTPSSTVTLGCLVKGYLPEPVTVTWNSGTLTNGVRTFPSVRQSSGLYSLSSVVSVTSSSQPVTCNVAHPATNTKVDKTVAPSTCSKPMCPPPELPGGPSVFIFPPKPKDTLMISRTPEVTCVVVDVSQDDPEVQFTWYINNEQVRTARPPLREQQFNSTIRVVSTLPIAHQDWLRGKEFKCKVHNKALPAPIEKTISKARGQPLEPKVYTMGPPREELSSRSVSLTCMINGFYPSDISVEWEKNGKAEDNYKTTPTVLDSDGSYFLYSKLSVPTSEWQRGDVFTCSVMHEALHNHYTQKSISRSPGK
light: MDTRAPTQLLGLLLLWLPGARCADIVMTQTPASVEAAVGGTVTIKCQASESIGNALAWYQQKPGQPPKLLIYTAATLASGVPSRFSGSGSGTEFTLTISGVQCDDAATYYCQSYYFTSVSSYGNAFGGGTEVVVKGDPVAPTVLIFPPAADQVATGTVTIVCVANKYFPDVTVTWEVDGTTQTTGIENSKTPQNSADCTYNLSSTLTLTSTQYNSHKEYTCKVTQGTTSVVQSFNRGDC
B7: 9-G05: mouse anti-α11β1 mAb; VH SEQ ID NO: 103, VL SEQ ID NO: 104 (antibody, V domains shown)
VH: EVQLQQSGPELVKPGASVKIPCKASGYTFPDYNMDWVKQSHGKSLEWIGYINPDNGGTIYNQKFKGKATLTVDKSSSTAYMELRSLTSEDTAVYYCARLDSSGYGYYAMDYWGQGTSVTVSS
VL: DIVLTQSPASLAVSLGQRATISCRASESVDNYGISFMHWYQQKPGQPPKLLIYRASNLDSEIPARFSGSGSRTDFTLTIDPVETDDVATYYCQQSYKDPRTFGGGTKLEIK
B8: 79E3E3: rat anti-α11β1 mAb; VH SEQ ID NO: 145, VL SEQ ID NO: 146 (antibody, V domains shown)
VH: MDWLWNLLFLMVVAQSAQAQIQLVQSGPEVKKPGESVKISCKASGYTFTDYAMNWVKQAPGNGLKWMGWINTQTGKPTYADDFKQRFVFSLETSARTTYLQINNLNIEDTATYFCTRLGTGNTKGFAYWGQGTLVTVSS
VL: MESQTHVLISLLLCVSGTCGDILINQSPASLTVSAGERVTMSCKSSQSLLYSENNQDYLAWYQQKPGQFPKLLIYGASNRHTGVPDRFTGSGSGTDFTLTISSVQAEDLADYYCEQTYRYPFTFGSGTKLEIK

Columns and labels:
[1] = system: CHO cell lines expressing α11; assay: Collagen gel contraction assay; format: cell-based, human; conditions: for Inhibition of CHO-K1 gel contraction: Yes/No; for inhibition of CHO-hu α11-mediated collagen gel contraction: vs untreated
Method: 24-well plates were blocked with 2% BSA in PBS overnight at 37° C. The following day, the plates were washed 3 times with PBS before being used in the assay. Human CHO cell lines expressing α11 were harvested and resuspended at 1.25×10^6 in ExpiCHO Expression Medium (Gibco™ Cat #A2910002). The collagen gel solution was prepared by diluting 3 mg/mL stock collagen type I (Gibco™ Collagen I Rat Protein, Tail Cat #A1048301) to 1 mg/mL in the media containing the CHO cells. Sodium hydroxide was added to the solution to neutralize the pH and 400 μL of the collagen solution was added to each well of the 24-well plates. For the wells where the antibodies were included in the collagen gel solution, CHO cells were prepared at 2.5×10^6 and the antibodies were prepared at 2× final concentration in ExpiCHO media. The cells and antibodies were then combined 1:1 before the addition of the stock collagen type 1. The gels were allowed to polymerize for 60 minutes at 37° C. Antibodies were added to the ExpiCHO media, which was then layered on top of the polymerized gel (400 μL/well). The gels were incubated for 6 days at 37° C. before gel contraction was quantified. Images of each well were analyzed using Image J and gel contraction was determined as a percentage of the initial gel area.
Selected exemplary antibodies were tested for the ability to inhibit cell-mediated 3D gel contraction because this ability is directly linked to the functionality of the exemplary antibodies.

α11β1 Headpiece = assay: SPR binding to α11β1 Headpiece; design: species or system human; conditions: SPR data
Method: (§1) The affinity of antibodies for human α11β1 was measured by surface plasmon resonance assay (SPR). Affinity was measured at pH 7.6 and 25° C. with a Biacore T200 instrument. Anti-HIS antibody was immobilized on the SPR sensor surface using EDC/NHS covalent attachment. HIS-tagged human α11β1 was captured on the sensor surface and a single-cycle kinetics assay was used. Increasing concentrations of test antibody were injected in series over the sensor-bound α11β1. Dissociation was monitored for 1000 seconds. A sensor surface with only anti-HIS antibody and a series of blank injections were used to double-reference subtract the data. A 1:1 Langmuir model was fit to the data to estimate the kinetic association and dissociation constants. The affinity (equilibrium dissociation constant) of the interaction was calculated by dividing the kinetic dissociation constant by the kinetic association constant. Between injection cycles α11β1 and bound antibody were removed with an injection of 10 mM glycine at pH 1.5.
(§2) The binding affinity of antibodies for the α11β1 Headpiece and α11β1 I Domain as measured by SPR is shown in FIG. 10A and FIG. 10B, respectively.

A549 cells = assay: Tumor xenograft model; format: in vivo, C.B-17 SCID mice; conditions: for Days to Volume Doubling (ave, 95% CI): intraperitoneal every 3 days, 7 doses; for inhibition of tumor growth compared to isotype control: A549 xenograft, SCID mice
Method: Fifty-six female C.B-17 SCID mice were inoculated with A549 cells (5×10^6 cells/mouse) subcutaneously in the flank. Once tumor volume reached ˜100 mm^3, animals were randomized amongst 7 groups of 8 mice each. Mice were then treated intraperitonealy every 3 days for a total of 7 doses with isotype controls or novel mAbs 79E3E3, 16E10 and 9G04 (2 and 20 mg/kg) or with docetaxel at 10 mg/kg every 4 days for a total of 6 doses. Tumor volumes and body weights were recorded twice a week with a gap of 2-3 days in between two measurements until any of the following conditions defined were observed: loss of 20% or more body weight; tumors that inhibit normal physiological function such as eating, drinking, and mobility; ulcerated tumors; tumor size greater than 2000 mm^3 and clinical observations of prostration, paralysis, seizures and hemorrhages.
In this example, studies were performed to determine if inhibition of α11β1 function with mAb results in xenograft growth inhibition. As shown in FIG. 16 and Table 4, blocking α11β1 on mouse CAFs impeded xenograft growth in SCID mice.

α11β1 I Domain = biological target: T1, α11β1 I Domain; assay: SPR binding to α11β1 I Domain; conditions: SPR data
Method: as §1, §2

| Molecule | Inhibition of CHO-K1 gel contraction [1] | inhibition of CHO-hu α11-mediated collagen gel contraction [1] | binding to the headpiece domain of α11β1 (α11β1 Headpiece) | Days to Volume Doubling (ave, 95% CI) (A549 cells; 2mpk) | Days to Volume Doubling (ave, 95% CI) (A549 cells; 20mpk) | inhibition of tumor growth compared to isotype control (A549 cells) | binding to the I domain of α11β1 (α11β1 I Domain) |
| --- | --- | --- | --- | --- | --- | --- | --- |
| B1 | Yes | inhibited CHO-hu α11-mediated collagen gel contraction | do not bind | 7.9 (7.5, 8.3) Days | 7.9 (7.5, 8.3) Days | no significant inhibition of tumor growth | do not bind |
| B2 | No |  |  |  |  |  |  |
| B3 | No | inhibited CHO-hu α11-mediated collagen gel contraction |  |  |  |  |  |
| B4 |  | inhibited CHO-hu α11-mediated collagen gel contraction |  |  |  |  |  |
| B5 | Yes |  |  |  |  |  |  |
| B6 | No |  |  |  |  |  |  |
| B7 | Yes | inhibited CHO-hu α11-mediated collagen gel contraction |  |  |  |  | do bind |
| B8 | Yes | inhibited CHO-hu α11-mediated collagen gel contraction |  | 8.5 (8.0, 9.0) Days | 8.5 (8.0, 9.0) Days | significantly inhibited tumor growth | do bind |
